Experimental data as given in patent US20140302033A1 (UCB, published 2014).

B1: FabA-dsscFv (CL-dsscFv) (bispecific antibody)
chain 1: DIQMTQSPSSLSASVGDRVTITCRATQSIYNALAWYQQKPGKAPKLLIYNANTLHTGVPSRFSASGSGTDSTLTISSLQPEDFATYYCQQYYDYPLTFGGGTKVEIKRTVAAPSVFIFPPSDEQLKSGTASVVCLLNNFYPREAKVQWKVDNALQSGNSQESVTEQDSKDSTYSLSSTLTLSKADYEKHKVYACEVTHQGLSSPVTKSFNRGECSGGGGSGGGGSGGGGSEVQLLESGGGLVQPGGSLRLSCAVSGIDLSNYAINWVRQAPGKCLEWIGIIWASGTTFYATWAKGRFTISRDNSKNTVYLQMNSLRAEDTAVYYCARTVPGYSTAPYFDLWGQGTLVTVSSGGGGSGGGGSGGGGSGGGGSDIQMTQSPSSVSASVGDRVTITCQSSPSVWSNFLSWYQQKPGKAPKLLIYEASKLTSGVPSRFSGSGSGTDFTLTISSLQPEDFATYYCGGGYSSISDTTFGCGTKVEIKRT
chain 2: EVQLVESGGGLVQPGGSLRLSCAASGFTFTNYGIHWIRQAPGKGLEWVASISPSGGLTYYRDSVKGRFTISRDDAKNSPYLQMNSLRAEDTAVYYCATGGEGIFDYWGQGTLVTVSSASTKGPSVFPLAPSSKSTSGGTAALGCLVKDYFPEPVTVSWNSGALTSGVHTFPAVLQSSGLYSLSSVVTVPSSSLGTQTYICNVNHKPSNTKVDKKVEPKSC
B2: FabA-dsscFv (CH1-dsscFv) (bispecific antibody)
chain 1: EVQLVESGGGLVQPGGSLRLSCAASGFTFTNYGIHWIRQAPGKGLEWVASISPSGGLTYYRDSVKGRFTISRDDAKNSPYLQMNSLRAEDTAVYYCATGGEGIFDYWGQGTLVTVSSASTKGPSVFPLAPSSKSTSGGTAALGCLVKDYFPEPVTVSWNSGALTSGVHTFPAVLQSSGLYSLSSVVTVPSSSLGTQTYICNVNHKPSNTKVDKKVEPKSCSGGGGSGGGGTGGGGSEVQLLESGGGLVQPGGSLRLSCAVSGIDLSNYAINWVRQAPGKCLEWIGIIWASGTTFYATWAKGRFTISRDNSKNTVYLQMNSLRAEDTAVYYCARTVPGYSTAPYFDLWGQGTLVTVSSGGGGSGGGGSGGGGSGGGGSDIQMTQSPSSVSASVGDRVTITCQSSPSVWSNFLSWYQQKPGKAPKLLIYEASKLTSGVPSRFSGSGSGTDFTLTISSLQPEDFATYYCGGGYSSISDTTFGCGTKVEIKRT
chain 2: DIQMTQSPSSLSASVGDRVTITCRATQSIYNALAWYQQKPGKAPKLLIYNANTLHTGVPSRFSASGSGTDSTLTISSLQPEDFATYYCQQYYDYPLTFGGGTKVEIKRTVAAPSVFIFPPSDEQLKSGTASVVCLLNNFYPREAKVQWKVDNALQSGNSQESVTEQDSKDSTYSLSSTLTLSKADYEKHKVYACEVTHQGLSSPVTKSFNRGEC
B3: A26 Fab-dsFv (645gH5gL4) (bispecific antibody)
heavy: EVQLVESGGGLVQPGGSLRLSCAASGFTFTNYGIHWIRQAPGKGLEWVASISPSGGLTYYRDSVKGRFTISRDDAKNSPYLQMNSLRAEDTAVYYCATGGEGIFDYWGQGTLVTVSSASTKGPSVFPLAPSSKSTSGGTAALGCLVKDYFPEPVTVSWNSGALTSGVHTFPAVLQSSGLYSLSSVVTVPSSSLGTQTYICNVNHKPSNTKVDKKVEPKSCSGGGGSGGGGTGGGGSEVQLLESGGGLVQPGGSLRLSCAVSGIDLSNYAINWVRQAPGKCLEWIGIIWASGTTFYATWAKGRFTISRDNSKNTVYLQMNSLRAEDTAVYYCARTVPGYSTAPYFDLWGQGTLVTVSS
light: DIQMTQSPSSLSASVGDRVTITCRATQSIYNALAWYQQKPGKAPKLLIYNANTLHTGVPSRFSASGSGTDSTLTISSLQPEDFATYYCQQYYDYPLTFGGGTKVEIKRTVAAPSVFIFPPSDEQLKSGTASVVCLLNNFYPREAKVQWKVDNALQSGNSQESVTEQDSKDSTYSLSSTLTLSKADYEKHKVYACEVTHQGLSSPVTKSFNRGECGGGGSGGGGSGGGGSDIQMTQSPSSVSASVGDRVTITCQSSPSVWSNFLSWYQQKPGKAPKLLIYEASKLTSGVPSRFSGSGSGTDFTLTISSLQPEDFATYYCGGGYSSISDTTFGCGTKVEIKRT
notes: Anti-OX40 A26 Fab fused to the disulphide-stabilised anti-albumin Fv 645gH5gL4; In the cell assay (2.4) it was labelled with Alexa Fluor 488; also called A26 Fab-Fv; Fab-Fv

Experiments:
[1] = target: T1, Human Serum Albumin (human, UniProt P02768 25-609); experiment: kinetics table, analyte HSA, single concentration 50nM; HEK293 material; method not named in Example 4
T1 construct: also called HSA; HAS

[2] = target: T1, Human Serum Albumin; experiment: kinetics table, analyte HSA, titration 50nM, 25nM, 12.5nM, 6.25nM; HEK293 material; method not named in Example 4
[3] = target: T1, Human Serum Albumin; experiment: SPR BIAcore T200; Fab-Fv captured by anti-human F(ab')2, albumin as analyte; average of 3
Method: (§1) BIA (Biamolecular Interaction Analysis) was performed using a BIAcore T200 (GE Healthcare). Affinipure F(ab′)₂ Fragment goat anti-human IgG, F(ab′)₂ fragment specific (Jackson ImmunoResearch) was immobilised on a CM5 Sensor Chip via amine coupling chemistry to a capture level of ≈5000 response units (RUs). HBS-EP buffer (10 mM HEPES pH 7.4, 0.15 M NaCl, 3 mM EDTA, 0.05% Surfactant P20, GE Healthcare) was used as the running buffer with a flow rate of 10 μl/min. A 10 μL injection of Fab-Fv at 0.75 μg/mL was used for capture by the immobilised anti-human IgG-F(ab′)₂. Human Serum Albumin (HSA), Mouse Serum albumin (MSA) and Cynomolgus Serum Albumin (CSA) was titrated over the captured Fab-Fv at various concentrations (50 nM to 6.25 nM) at a flow rate of 30 μL/min. The surface was regenerated by 2×10 μL injection of 50 mM HCl, followed by a 5 μL injection of 5 mM NaOH at a flowrate of 10 μL/min. Background subtraction binding curves were analysed using the T200evaluation software (version 1.0) following standard procedures. Kinetic parameters were determined from the fitting algorithm.

[4] = target: T2, Mouse Serum albumin (mouse, UniProt P07724 25-608); experiment: as above
T2 construct: also called MSA
Method: as §1

[5] = target: T3, Cynomolgus Serum Albumin (cynomolgus, UniProt A2V9Z4 25-608); experiment: as above
T3 construct: also called CSA
Method: as §1

| Binder | Kd [1] | koff [1] | kon [1] | Kd [2] | koff [2] | kon [2] | Kd [3] | koff [3] | kon [3] | Kd [4] | koff [4] | kon [4] | Kd [5] | koff [5] | kon [5] |
| --- | --- | --- | --- | --- | --- | --- | --- | --- | --- | --- | --- | --- | --- | --- | --- |
| B1 | 1.28 nM | 0.000211 s⁻¹ | 165000 M⁻¹ s⁻¹ | 1.31 nM | 0.00024 s⁻¹ | 183000 M⁻¹ s⁻¹ | – | – | – | – | – | – | – | – | – |
| B2 | 1.25 nM | 0.000199 s⁻¹ | 160000 M⁻¹ s⁻¹ | 1.29 nM | 0.000222 s⁻¹ | 172000 M⁻¹ s⁻¹ | – | – | – | – | – | – | – | – | – |
| B3 | – | – | – | – | – | – | 2.93 nM | 0.000163 s⁻¹ | 58400 M⁻¹ s⁻¹ | 4.16 nM | 0.000368 s⁻¹ | 88600 M⁻¹ s⁻¹ | 2.66 nM | 0.000189 s⁻¹ | 71000 M⁻¹ s⁻¹ |
